We go through 18 molecules from US20190248902A1 (published 2019).

First the molecules themselves.
T1: soluble human ASGR-1 carbohydrate binding domain (CBD; amino acid residues 154-281; N-terminal 6xHis tag) (human, UniProt P07306 154-281)
T1 construct: also called ASGR-1 CBD
T1 sequence: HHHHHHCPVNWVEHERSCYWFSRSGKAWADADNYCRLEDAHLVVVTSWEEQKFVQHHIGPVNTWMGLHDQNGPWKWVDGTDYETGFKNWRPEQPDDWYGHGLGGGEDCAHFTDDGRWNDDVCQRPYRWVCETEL

T2: human ASGR-1 (wild type) (human, UniProt P07306 1-291)
T2 construct: also called wt ASGR1; huASGR-1
T2 sequence: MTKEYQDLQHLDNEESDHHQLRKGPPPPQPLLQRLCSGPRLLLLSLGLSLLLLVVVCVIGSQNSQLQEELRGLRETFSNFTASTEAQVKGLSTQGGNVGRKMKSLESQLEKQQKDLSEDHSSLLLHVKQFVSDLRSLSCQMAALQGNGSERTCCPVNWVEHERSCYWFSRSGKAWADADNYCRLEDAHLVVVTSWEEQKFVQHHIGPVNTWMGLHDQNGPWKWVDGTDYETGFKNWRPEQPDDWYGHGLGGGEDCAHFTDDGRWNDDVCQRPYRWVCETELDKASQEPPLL

B1: 5E5 (antibody, V domains shown)
VH: QVQLVESGGGVVQPGRSLRLSCAASGFTFSNYVMHWVRQAPGKGLEWVAVIWYDGSNKYYADSVKGRFTISRDNSKNTLYLQMNSLRAEDTAVYYCTREVYSSGWYDYGMDVWGQGTTVTVSS
VL: DIQMTQSPSSLSASVGDRVTITCRASQGIRNDLGWYQQKPGKAPKRLIYAASSLQSGVPSRFSGSGSGTEFTLTISSLQPEDFATYYCLQHYSYPRTFGQGTKVEVK
notes: mAb
B2: 7G4 (antibody, V domains shown)
VH: B1 VH with S30N, N84T, T97A, V100K, G104N
VL: B1 VL with K39R, F83S, Q90H, H91Q, V106I
notes: mAb
B3: 26C4 (antibody, V domains shown)
VH: QVQLVQSGAEVKKPGASVKVSCKASGYTFTNYDINWVRQASGQGLEWMGWMNPNSGNTGYAQRFQGRVTMTRNTSINTAYMELSSLRSEDTAVYYCASSSGWYYFDYWGQGTLVTVSS
VL: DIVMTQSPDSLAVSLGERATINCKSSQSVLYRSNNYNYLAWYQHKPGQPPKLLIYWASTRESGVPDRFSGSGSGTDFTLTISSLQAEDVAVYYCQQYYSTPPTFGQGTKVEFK
notes: mAb
B4: 25A4 (antibody, V domains shown)
VH: B3 VH with Q3L, K13R, S41T, N52Y, R63K, N77S
VL: DIVMTQFPDSLAVSLGERATIKCKSSQSVLYSSHNNNYLAWYQQKPGQPPKLLLYWASTRESGVPDRFSGSGSGTEFTLTISSLEAEDVAVYYCQQYYSTPPTFGQGTKVEIK
notes: mAb
B5: 29H8 (antibody, V domains shown)
VH: B3 VH with K12Q, S41T, N77S, T78A
VL: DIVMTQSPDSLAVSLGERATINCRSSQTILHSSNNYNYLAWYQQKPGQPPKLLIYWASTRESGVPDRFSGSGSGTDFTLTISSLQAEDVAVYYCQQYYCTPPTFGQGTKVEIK
notes: mAb
B6: 48B12 (antibody, V domains shown)
VH: EVQLLESGGGLVQPGGSLRLSCAASGFTFSSYAMNWVRQAPGKGLEWVSAISGRGGNTFYADSVKGRFTISRDNSKNTLYLQMNSLRAEDTAVYYCAKRETYNWNYEGFDYWGQGTLVTVSS
VL: SYELTQPPSVSVSPGQTARITCSGDALPKKYAYWYQQKSGQAPVLVIYEDSKRPSGIPERFSGSSSGTMATLTISGAQVEDEADYYCNSTDSSGNHVVFGGGTKLTVL
notes: mAb
B7: 184E7 (antibody, V domains shown)
VH: QVQLVQSGAEVKTPGASVKVSCRASGYTFTSYNMHWVRQVPGQGLEWMGWINPNNGGSNYTQKFQGRVTMTRDTSISTAYMELSRLRSDDTAVYYCARKFGDWGQGTLVTVSS
VL: DIQMTQSPSSRSASIGERVTITCRASQGISNYLAWIQQKPGTAPKSLIYAASSLQSGVSSRFSGSGFGTDFTITISSVQREDFATYYCQQYNGYPFTFGHGTKVDIK
notes: mAb
B8: 7E11 (antibody, V domains shown)
VH: QVQLVESGGGVVQPGRSLRLSCAASGFTFSSFGMHWVRQAPGKGLEWVAIIWHDGSNKYYADSVKGRFTISRDNSNNTLYLQMSSLRAEDTAVYYCARDLSMGGMDVWGQGTTVTVSS
VL: DIQMTQSPSSLSASVGDRVTIACRASQNIISYLNWYQQKPGKAPKFLIYTASSLQSGVPSRFSGSGSGTDFTLTISSLQPEDFAIYYCQQTYSTPLTFGGGTKVEIK
notes: mAb
B9: 194A4 (antibody, V domains shown)
VH: QVQLVQSGTEVKKPGASLKVSCKASGYTFTVYYLNWVRQAPGQGLEWMGWINPNSGGTNYAQKFQGRVTMTRDTSISTAYMELSRLRSDDTAVYYCARGYDILTGWGQGTLVTVSS
VL: EIVLTQSPGTLSLSPGERATLSCRASRGVSNIYLAWYQQKPGQAPRLLIYGASNRATGIPDRFSGSGSGTDFTLTISRLEPEDFAVYYCQHNDYSMFTFGPGTKVDIK
notes: mAb
B10: 6G7 (antibody, V domains shown)
VH: QVQLVESGGGVVQPGRSLRLSCAASGFTFSSYGMHWVRQTPGKGLEWVAIISYVGKNKYYADSVKGRFTISRDNSKNTLYLQMNSLRAEDTAVYYCARRGNSYGGYGMDVWGQGTTVTVSS
VL: DIQMTQSPSSRSASVGDRVTITCQASQDISNYLNWCQQKPGKALKLLIYDASTLETGVPSRFSGSGSGTDFTFTISSVQPEDIATYYCQQYDNVPITFGQGTRLEIK
notes: mAb
B11: 190F8 (antibody, V domains shown)
VH: QVQLVESGGGVVQPGRSLRLSCAASGFTFSTYGMHWVRQAPGKGLEWVAVIWYDGSNKNYADSVKGRFTISRDNSKNTLYLQMNSLRAEDTAVYYCARDQGVGYDGLDVWGQGTTVTVSS
VL: DIQMTQSPSSLSASVGDRVTITCRTSQGIGNYLAWFQQKPGKAPKSLLYKASSLQSGVPSKFSGSGSGTDFTLTISSLQPEDFATYYCQQYMTYPLTFGGGTKVEIK
notes: mAb
B12: 194C1 (antibody, V domains shown)
VH: B11 VH with T31S, K58E, N59H, D99N, Q100R, D105Y
VL: B11 VL with T25A, G30S, L48I, K50A, Q89L, Q90H, M92L
notes: mAb
B13: 191G1 (antibody, V domains shown)
VH: B11 VH with T31S, K58E, N59H, Q100R, D105Y
VL: B11 VL with T25A, G30S, L48I, K50A, Q90H, M92L
notes: mAb
B14: 198G3 (antibody, V domains shown)
VH: B11 VH with R19K, S56T, Y80C
VL: B11 VL with T5A, N31K, S56G
notes: mAb
B15: 191G10 (antibody, V domains shown)
VH: B11 VH with T31S
VL: B11 VL with N31K, A51V
notes: mAb
B16: 22G5 (antibody, V domains shown)
VH: EVQLLESGGGLVQPGGSLRLSCAASGFTFSSYAMNWVRQAPGMGLEWVSVISRSGGYTYYADSVKGRFTISRDNSKNTLYLQMNSLRAEDTAVYYCASRLAVAGSEAFDIWGQGTLVTVSS
VL: DIQMTQSPSSLSASVGDRVTITCRASQNISSYLNWYQQKQGKAPKLLIYAASSLQNGVPSRFSGRGSGTDFTLTISSLQPEDFATYYCQQSYRTPLFTFGPGTKVDFK
notes: mAb
B17: 56E5 (antibody, V domains shown)
VH: QVQLVQSGAEVKKPGASVKVSCQASGYTFTGYHMHWVRQAPGQGLEWMGWINPNNNATNYAQKFQGRVTMTRDTSISTAYMELRRLRSDDTAVYHCARDGTSSFDYWGQGTLVTVSS
VL: DIQMTQSPSSVSASVGDRVTITCRASQGIRKWLAWYQQKPGKAPKLLIYAASSLQSGVPSRFSGSGSGTDFTLTISSLQPEDFATYYCQQANSFPFTFGPGTKVDIK
notes: mAb
B18: 72G9 (antibody, V domains shown)
VH: EVQLVESGGGLVKPGGSLRLSCAASGFTFSSYSMNWVRQAPGKGLEWVSSISGSSSYIYYADSVKGRFTISRDNAKNSLYLQMNSLRAEDTAVYFCARGGSRGFDPWGQGTLVTVSS
VL: B17 VL with V11L, G28S, R30T, K31S, W32Y, A34N, A50T, A91S, N92H
notes: mAb

Substitutions are numbered along the chain they refer to.

For the first assay, the target named is T1, soluble human ASGR-1 carbohydrate …. Kind of assay: Octet BLI, mAb on AR2G tips, 1:1 fit. The source says: To quantitate the binding affinity of specific antibodies for ASGR-1 (either purified from hybridoma supernatants or made recombinantly), association and dissociation rates can be measured using a ForteBio Octet instrument. […] Experimental kinetic results were globally fit to a 1:1 binding model in order to determine the association and dissociation rate constants as well as the equilibrium dissociation constant. Association and dissociation times were chosen to ensure that curvature was present during association curves and measured dissociation levels dropped at least 5% from starting levels. All Octet buffers contained 10 mM Tris (pH7.5), 150 mM NaCl, 1 mM CaCl₂), 0.10 mg/ml BSA and 0.13% Triton X-100. Octet assays were run at 27° C. Because this assay only measures binding to the ASGR-1 CBD, antibodies that recognize epitopes partially or entirely outside the CBD and/or recognize ASGR-1 in the context of a native ASGR complex, for example, as could occur on cell membranes, may not score as positive in this assay.
On the technique in general: Biolayer interferometry detects binding as a change in optical thickness at a sensor tip.
Consider B1, for which the Kd – broadly, the free concentration of one partner at which half of the binding sites on the other are occupied at equilibrium, for simple one-to-one binding – was 7.6 nM.

B2 came in with a Kd of 0.9 nM.

The molecule B3 had a Kd of 0.4 nM.

B4: the Kd was found to be 0.03 nM.

B5 displayed a Kd of 1 nM.

With B6, the affinity, expressed as Kd, was 0.3 nM.

B7: binding was put at a Kd of 0.3 nM.

B8 registered a Kd of 1.6 nM.

Take B9: the Kd was 0.7 nM.

The molecule B10 yielded a Kd of 2 nM.

B11 showed a Kd of 0.6 nM.

B12 came in with a dissociation constant (Kd) of 1.3 nM.

On to B13, for which the dissociation constant Kd came out at 2.4 nM.

In turn, B14 yielded a Kd of 0.04 nM.

Molecule B15 registered a Kd of 0.5 nM.

The molecule B16 yielded a dissociation constant Kd of 1.4 nM.

Take B17: the Kd worked out at 0.5 nM.

As to B18, the Kd was 0.5 nM.

In a further assay the target is T2, human ASGR-1 (wild type). Kind of assay: flow cytometry, CHO-S:huASGR-1 cells, 11-point titration. As for the experimental part: CHO—S stable high-expressing cell line were developed for both human ASGR-1 as well as mouse ASGR-1. A typical 384 well plate multiplex flow cytometery-based cell binding method is described as followed: Parental CHO—S cells and CHO—S:huASGR-1 cells were respectively labeled using a CellTrace CFSE Cell Proliferation Kit (ThermoFisher Catalog #C34554) and CellTrace Violet Cell Proliferation Kit (ThermoFisher Catalog#C34557) CHO—S:muASGR-1 were not labeled. 20 ul of cells at 4C were added to duplicate wells of the 384 well plate. The cells were equally mixed from all three cell lines (30K cells/well). Then 20 ul of the ASGR-1 antibodies (either purified from hybridoma supernatants or made recombinantly) were added in an 11-point dose response using a 1:2 fold serial dilution starting at 100 nM. The cells and antibodies were incubated for 30 min at 4C and then spun down and washed twice with FACS buffer containing 1 mM CaCl2. 30 ul of anti-hulgG-APC secondary antibodies were then added at a 1:1000 dilution) for 30 min at 4C and then washed once with the same buffer. 60 ul of PI (1:1000) was added and then the cells were read by a core flow cytometry facility. The cells were gated first for live cells, then for single cells and finally for the cell dyes to separate the mixed cells into the three different cell populations. Histograms of signal vs count representing the binding profile of each antibody at each antibody concentration were automatically analyzed for the median of the binding signal and then a binding graph was made with log 10 antibody concentration in nM on the X axis with […] from the duplicate wells on the Y-axis. The binding curves were fit with a standard four parameter sigmoidal binding curve and EC50's reported for all graphs with full curves.
Background: In flow cytometry, cells or beads pass a laser one at a time.
For B1, a half-maximal effect (EC50) was put at 3.8 nM.

B2: the EC50 (in general, the concentration that produces a half-maximal response) came to 0.69 nM.

On to B3, for which a half-maximal response (EC50) required 11 nM.

The molecule B4 gave a concentration giving a half-maximal response (EC50) of 1.6 nM.

B5 displayed an EC50 of 1.9 nM.

For the molecule B6, the response was half-maximal at 38 nM (EC50).

In turn, B7 displayed an EC50 of 1 nM.

B8 came in with an EC50 of 1.4 nM.

B9 came in with an EC50 of 25 nM.

Take B10: the EC50 stood at 0.6 nM.

In turn, B11 showed an EC50 of 9 nM.

Consider B12, for which the EC50 came to 0.11 nM.

The molecule B13 gave an EC50 of 0.16 nM.

The molecule B14 gave a half-maximal effective concentration (EC50) of 0.21 nM.

In turn, B15 had an EC50 of 0.31 nM.

In turn, B16 registered an EC50 of 7.2 nM.

On to B17, for which the EC50 came to 1.1 nM.

Turning to B18, the EC50 came to 0.41 nM.
